# Test results taken from patent US20220298218A1 (ANTAG THERAPEUTICS, published 2022).
# *1 amine or outer side, *2 acyl side, *3 side chain or, on linkers, in order; H or OH if unused. Where no end group is shown, it is not given here. Side-chain parts run from the residue outwards. [ ]: non-standard residue; d: D form. The star is where a group is joined. C18 diacid = O=C(O)CCCCCCCCCCCCCCCCC(=O)*; γGlu = O=C(O)[C@H](CCC(=O)[*:2])N[*:1]; Nle = CCCC[C@H](N)C(=O)O; AEEA = NCCOCCOCC(=O)O
# T1: human GIP receptor (human, UniProt P48546 22-466)
# T1 sequence (looked up): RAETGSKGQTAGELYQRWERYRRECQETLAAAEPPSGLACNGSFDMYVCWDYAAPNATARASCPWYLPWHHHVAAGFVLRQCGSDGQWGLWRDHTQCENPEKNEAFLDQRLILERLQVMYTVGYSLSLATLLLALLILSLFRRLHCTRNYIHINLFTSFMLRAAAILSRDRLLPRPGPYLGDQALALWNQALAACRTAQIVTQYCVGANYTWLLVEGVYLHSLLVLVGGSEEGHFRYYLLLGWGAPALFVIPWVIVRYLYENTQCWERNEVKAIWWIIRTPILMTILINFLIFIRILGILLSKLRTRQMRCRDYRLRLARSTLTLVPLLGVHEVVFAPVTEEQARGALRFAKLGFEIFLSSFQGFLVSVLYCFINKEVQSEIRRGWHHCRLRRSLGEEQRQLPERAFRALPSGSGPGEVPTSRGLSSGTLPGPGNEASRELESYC
# B1: AT689 (peptide)
# peptide: EGTFISDYSIALDKIK([AEEA-AEEA-γGlu-C18 diacid])QQDFVNWLLEQKPSSGAPPPS-OH
# modifications: N-terminus assumed
# SMILES: CC[C@H](C)[C@H](NC(=O)[C@H](CO)NC(=O)[C@H](Cc1ccc(O)cc1)NC(=O)[C@H](CC(=O)O)NC(=O)[C@H](CO)NC(=O)[C@@H](NC(=O)[C@H](Cc1ccccc1)NC(=O)[C@@H](NC(=O)CNC(=O)[C@@H](N)CCC(=O)O)[C@@H](C)O)[C@@H](C)CC)C(=O)N[C@@H](C)C(=O)N[C@@H](CC(C)C)C(=O)N[C@@H](CC(=O)O)C(=O)N[C@@H](CCCCN)C(=O)N[C@H](C(=O)N[C@@H](CCCCNC(=O)COCCOCCNC(=O)COCCOCCNC(=O)CC[C@H](NC(=O)CCCCCCCCCCCCCCCCC(=O)O)C(=O)O)C(=O)N[C@@H](CCC(N)=O)C(=O)N[C@@H](CCC(N)=O)C(=O)N[C@@H](CC(=O)O)C(=O)N[C@@H](Cc1ccccc1)C(=O)N[C@H](C(=O)N[C@@H](CC(N)=O)C(=O)N[C@@H](Cc1c[nH]c2ccccc12)C(=O)N[C@@H](CC(C)C)C(=O)N[C@@H](CC(C)C)C(=O)N[C@@H](CCC(=O)O)C(=O)N[C@@H](CCC(N)=O)C(=O)N[C@@H](CCCCN)C(=O)N1CCC[C@H]1C(=O)N[C@@H](CO)C(=O)N[C@@H](CO)C(=O)NCC(=O)N[C@@H](C)C(=O)N1CCC[C@H]1C(=O)N1CCC[C@H]1C(=O)N1CCC[C@H]1C(=O)N[C@@H](CO)C(=O)O)C(C)C)[C@@H](C)CC
# B2: AT682 (peptide)
# peptide: EGTFISDYSIALDKIK([AEEA-AEEA-γGlu-C18 diacid])QQDFVEWLLAQKPSSGAPPPS-OH
# modifications: N-terminus assumed
# SMILES: CC[C@H](C)[C@H](NC(=O)[C@H](CO)NC(=O)[C@H](Cc1ccc(O)cc1)NC(=O)[C@H](CC(=O)O)NC(=O)[C@H](CO)NC(=O)[C@@H](NC(=O)[C@H](Cc1ccccc1)NC(=O)[C@@H](NC(=O)CNC(=O)[C@@H](N)CCC(=O)O)[C@@H](C)O)[C@@H](C)CC)C(=O)N[C@@H](C)C(=O)N[C@@H](CC(C)C)C(=O)N[C@@H](CC(=O)O)C(=O)N[C@@H](CCCCN)C(=O)N[C@H](C(=O)N[C@@H](CCCCNC(=O)COCCOCCNC(=O)COCCOCCNC(=O)CC[C@H](NC(=O)CCCCCCCCCCCCCCCCC(=O)O)C(=O)O)C(=O)N[C@@H](CCC(N)=O)C(=O)N[C@@H](CCC(N)=O)C(=O)N[C@@H](CC(=O)O)C(=O)N[C@@H](Cc1ccccc1)C(=O)N[C@H](C(=O)N[C@@H](CCC(=O)O)C(=O)N[C@@H](Cc1c[nH]c2ccccc12)C(=O)N[C@@H](CC(C)C)C(=O)N[C@@H](CC(C)C)C(=O)N[C@@H](C)C(=O)N[C@@H](CCC(N)=O)C(=O)N[C@@H](CCCCN)C(=O)N1CCC[C@H]1C(=O)N[C@@H](CO)C(=O)N[C@@H](CO)C(=O)NCC(=O)N[C@@H](C)C(=O)N1CCC[C@H]1C(=O)N1CCC[C@H]1C(=O)N1CCC[C@H]1C(=O)N[C@@H](CO)C(=O)O)C(C)C)[C@@H](C)CC
# B3: AT683 (peptide)
# peptide: EGTFISDYSIA[Nle]DKIK([AEEA-AEEA-γGlu-C18 diacid])QQDFVEWLLAQKPSSGAPPPS-OH
# Target: T1, human GIP receptor
# Assay: cell-based or functional assay
Binder,cAMP agonism % Emax,cAMP antagonism,cAMP antagonism % inhib,cAMP antagonism pIC50
B1,3%,10 nM,82%,8
B2,0%,13.6 nM,89%,7.9
B3,0%,15.9 nM,93%,7.8
